The results in this text go back to patent publication US20190062438A1 (CSL, published 2019).

Substitutions are numbered along the chain they refer to. Numbers in names are those of the source. Like-named read-outs stand apart in the source and are kept apart here.

Assay [1] addresses T1, human CD131 (human, UniProt P32927 17-897).
T1 construct: on transfected FS293F cells, TF-1 cells, human neutrophils and eosinophils, there together with the cytokine-specific alpha chains; also called hCD131; βc
T1 sequence: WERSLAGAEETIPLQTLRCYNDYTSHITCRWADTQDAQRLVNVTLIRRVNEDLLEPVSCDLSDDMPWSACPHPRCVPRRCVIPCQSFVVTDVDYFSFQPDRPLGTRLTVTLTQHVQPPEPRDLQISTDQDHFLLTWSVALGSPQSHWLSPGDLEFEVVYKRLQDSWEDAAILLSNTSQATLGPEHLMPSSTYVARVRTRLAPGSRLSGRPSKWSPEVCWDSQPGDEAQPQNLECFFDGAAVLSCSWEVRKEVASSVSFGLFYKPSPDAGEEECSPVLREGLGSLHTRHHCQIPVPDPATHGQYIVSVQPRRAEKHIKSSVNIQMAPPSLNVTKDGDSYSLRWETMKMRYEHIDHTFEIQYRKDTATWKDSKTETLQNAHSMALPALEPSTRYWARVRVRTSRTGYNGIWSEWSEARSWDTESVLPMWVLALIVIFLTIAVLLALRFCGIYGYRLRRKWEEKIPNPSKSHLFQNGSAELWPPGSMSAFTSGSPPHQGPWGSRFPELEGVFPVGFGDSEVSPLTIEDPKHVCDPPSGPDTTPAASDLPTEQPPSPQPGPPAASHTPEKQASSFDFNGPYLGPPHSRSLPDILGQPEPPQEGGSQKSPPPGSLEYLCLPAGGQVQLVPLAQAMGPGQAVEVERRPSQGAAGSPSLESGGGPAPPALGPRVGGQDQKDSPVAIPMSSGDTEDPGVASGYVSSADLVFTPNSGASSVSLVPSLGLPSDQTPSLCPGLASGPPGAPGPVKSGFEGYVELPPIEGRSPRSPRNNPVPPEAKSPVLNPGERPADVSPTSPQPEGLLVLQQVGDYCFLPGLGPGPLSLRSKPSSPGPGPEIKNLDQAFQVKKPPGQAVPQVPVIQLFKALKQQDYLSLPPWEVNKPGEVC
In words: competition binding on TF-1 cells: cells pre-incubated with the cytokine, then equilibrated with 85 pM radio-iodinated 9A2-VR24.29; cell-bound c.p.m. The method, then:
(§1) Each point is the mean of duplicate determinations of cell-bound radioiodinated cytokine and error bars represent the standard deviation.
(§2) Cytokines and antibodies were radio-iodinated using Pierce Pre-Coated Iodination tubes (Thermo Scientific) according to the manufacturer's instructions. MAb binding to cells expressing hβc was determined by incubating 1-2×10⁶ cells with radio-iodinated mAb at a range of concentrations at 23° C. for 1-2 hours with gentle mixing. Cell suspensions were then centrifuged through fetal calf serum (FCS) and radioactivity associated with the cells pellets was assessed by counting in a Wizard² 2470 Automatic Gamma Counter (Perkin Elmer, Rowville, VIC, Australia). Non-specific binding was assessed for each radio-iodinated mAb in the presence of at least a 500-fold excess of unlabeled mAb. […] Competition binding assays were performed essentially as previously described (41). Briefly 1-2×10⁶ cells were incubated with mAb or cytokine competitor at a range of concentrations at 4° C. for 45 minutes with gentle mixing. Radio-iodinated cytokine or mAb was then added and the mixture incubated at 23° C. for a further 1-2 hours with gentle mixing. Cell suspensions were then centrifuged through FCS and radioactivity associated with the cells pellets assessed by counting.

Assay [2] has as its target T2, soluble Homo sapiens CD131 comprising a C-terminal 6xHis tag (human, UniProt P32927 17-438).
T2 construct: truncated after Ser438, C-terminal 6xHis; also called shCD131; shβc
T2 sequence: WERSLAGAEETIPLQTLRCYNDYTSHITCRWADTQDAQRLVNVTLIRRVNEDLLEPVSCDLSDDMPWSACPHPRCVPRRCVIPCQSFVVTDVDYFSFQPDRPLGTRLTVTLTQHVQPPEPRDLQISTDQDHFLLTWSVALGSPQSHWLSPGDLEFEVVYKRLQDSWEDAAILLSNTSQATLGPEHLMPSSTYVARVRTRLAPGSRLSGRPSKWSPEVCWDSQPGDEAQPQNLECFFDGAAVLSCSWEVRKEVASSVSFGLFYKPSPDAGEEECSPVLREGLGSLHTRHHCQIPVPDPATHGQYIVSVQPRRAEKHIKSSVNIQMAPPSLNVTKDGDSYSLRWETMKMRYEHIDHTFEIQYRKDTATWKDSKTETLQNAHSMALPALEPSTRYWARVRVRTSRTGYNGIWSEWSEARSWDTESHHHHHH
As to the kind of experiment: SPR, Fab over captured shCD131. Background: In SPR one partner is held on a chip, and binding of the other changes the refractive index at the surface.

The target in assay [3] is T2, soluble Homo sapiens CD131 comprising a …. In words: SPR, kinetics, Fab over captured shCD131.
For assay [4], the target named is T1, human CD131. In words: saturation binding of radio-iodinated Fab on human neutrophils. The method, then:
(§3) Each point is the mean of duplicate determinations of cell-bound radio-iodinated antibody after subtraction of non-specific binding. Data from a single neutrophil binding experiment and a representative eosinophil binding experiment, n=2 is shown.
as §2, with “Radio-iodinated cytokine or mAb was then added and the mixture incubated at 23° C. for a further 1-2 hours with gentle mixing.” left out

For assay [5], the target named is T1, human CD131. As to the kind of experiment: saturation binding of radio-iodinated Fab to TF1 cells (first of three values in the cell). The method, then:
as §2

The target in assay [6] is T1, human CD131. In words: saturation binding of radio-iodinated Fab to TF1 cells (third of three values in the cell). The method, then:
as §2

Assay [7] addresses T1, human CD131. In words: saturation binding of radio-iodinated Fab to TF1 cells (second of three values in the cell). Here is the method: as §2
The target of assay [8] is T1, human CD131. As to the kind of experiment: saturation binding of radio-iodinated Fab to cells; row 'Average for all cells (±SEM)' (neutrophils, TF1 cells).
Assay [9] has as its target T1, human CD131. In words: cell-based or functional assay.
The target in assay [10] is T1, human CD131. As to the kind of experiment: cell-based or functional assay. This is another data set of the same source.
Assay [11] deals with T1, human CD131. As to the kind of experiment: saturation binding of radio-iodinated IgG on human eosinophils. Here is the method:
as §3
as §2, with “Radio-iodinated cytokine or mAb was then added and the mixture incubated at 23° C. for a further 1-2 hours with gentle mixing.” left out

Assay [12] addresses T1, human CD131. In words: saturation binding of radio-iodinated IgG on human neutrophils. The method, then:
as §3
as §2, with “Radio-iodinated cytokine or mAb was then added and the mixture incubated at 23° C. for a further 1-2 hours with gentle mixing.” left out

Assay [13] has as its target T1, human CD131. As to the kind of experiment: saturation binding of radio-iodinated antibody to TF1 cells (first of three values in the cell). The method, then: as §2
Assay [14] concerns the target T1, human CD131. In words: saturation binding of radio-iodinated antibody to TF1 cells (third of three values in the cell). Here is the method: as §2
The target of assay [15] is T1, human CD131. In words: saturation binding of radio-iodinated antibody to TF1 cells (second of three values in the cell). Here is the method:
as §2

Assay [16] deals with T1, human CD131. In words: saturation binding of radio-iodinated antibody to human eosinophils (first of two values in the cell). The method, then:
as §3
as §2, with “Radio-iodinated cytokine or mAb was then added and the mixture incubated at 23° C. for a further 1-2 hours with gentle mixing.” left out

Assay [17] has as its target T1, human CD131. As to the kind of experiment: saturation binding of radio-iodinated antibody to human eosinophils (second of two values in the cell). The method, then: as §3
as §2, with “Radio-iodinated cytokine or mAb was then added and the mixture incubated at 23° C. for a further 1-2 hours with gentle mixing.” left out

The target in assay [18] is T1, human CD131. In words: saturation binding of radio-iodinated antibody to cells; row 'Average for all cells (±SEM)' (neutrophils, eosinophils, TF1 cells).
Assay [19] has as its target T1, human CD131. As to the kind of experiment: competition binding on purified human eosinophils: cells pre-incubated with the antibody, then equilibrated with 340 pM radio-iodinated IL-3; cell-bound c.p.m. The method, then: as §1, §2
Assay [20] addresses T1, human CD131. In words: competition binding on purified human eosinophils: cells pre-incubated with the antibody, then equilibrated with 200 pM radio-iodinated IL-5; cell-bound c.p.m. The method, then:
as §1, §2

The target in assay [21] is T1, human CD131. As to the kind of experiment: cell-based or functional assay. This is another data set of the same source.
The target in assay [22] is T3, human IL-3R α-chain (human, UniProt P26951 19-378).
T3 construct: also called Hu-IL3R α chain
T3 sequence (P26951 19-378 limits assumed): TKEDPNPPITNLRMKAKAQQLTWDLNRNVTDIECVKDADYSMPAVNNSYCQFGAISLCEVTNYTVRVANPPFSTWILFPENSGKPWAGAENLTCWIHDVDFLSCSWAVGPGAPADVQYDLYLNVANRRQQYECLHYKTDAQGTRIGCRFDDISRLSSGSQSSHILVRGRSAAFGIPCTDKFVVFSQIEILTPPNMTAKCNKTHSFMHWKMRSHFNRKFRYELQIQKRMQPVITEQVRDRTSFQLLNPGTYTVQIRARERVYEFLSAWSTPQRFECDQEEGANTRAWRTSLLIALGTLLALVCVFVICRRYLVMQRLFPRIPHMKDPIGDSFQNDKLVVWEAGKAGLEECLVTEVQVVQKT
In words: flow cytometry, transiently transfected cells.

In assay [23] the target is T4, human GM-CSFR α-chain (human, UniProt P15509 23-400).
T4 construct: whole, on cells; also called GMRα
T4 sequence (looked up): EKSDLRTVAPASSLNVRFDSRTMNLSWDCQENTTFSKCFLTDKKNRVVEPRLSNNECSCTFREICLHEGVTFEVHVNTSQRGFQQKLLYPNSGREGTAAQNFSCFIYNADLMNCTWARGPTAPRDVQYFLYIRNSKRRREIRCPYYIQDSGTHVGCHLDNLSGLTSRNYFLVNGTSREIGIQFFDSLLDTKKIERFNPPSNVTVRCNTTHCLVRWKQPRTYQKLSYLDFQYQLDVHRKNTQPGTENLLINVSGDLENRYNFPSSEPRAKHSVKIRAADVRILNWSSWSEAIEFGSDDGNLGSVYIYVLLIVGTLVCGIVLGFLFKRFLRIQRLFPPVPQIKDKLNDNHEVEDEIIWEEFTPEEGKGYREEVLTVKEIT
As to the kind of experiment: flow cytometry, transiently transfected cells.

For assay [24], the target named is T5, human IL-5R α-chain (human, UniProt Q01344 21-420).
T5 construct: also called Hu-IL5R α chain isoform 1
T5 sequence: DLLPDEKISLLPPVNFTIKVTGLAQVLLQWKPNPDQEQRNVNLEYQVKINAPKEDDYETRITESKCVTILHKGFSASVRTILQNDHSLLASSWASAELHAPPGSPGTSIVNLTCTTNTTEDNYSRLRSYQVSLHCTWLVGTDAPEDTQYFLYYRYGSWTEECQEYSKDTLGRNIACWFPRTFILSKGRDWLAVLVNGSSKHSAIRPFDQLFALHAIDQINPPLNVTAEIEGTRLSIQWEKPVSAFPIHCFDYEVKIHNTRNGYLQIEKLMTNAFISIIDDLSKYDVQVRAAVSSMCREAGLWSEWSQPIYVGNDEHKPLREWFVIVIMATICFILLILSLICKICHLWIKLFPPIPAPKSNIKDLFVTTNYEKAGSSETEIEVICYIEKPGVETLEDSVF
As to the kind of experiment: flow cytometry, transiently transfected cells. Background: A flow cytometer gives signals particle by particle.

B1: recombinant human GM-CSF (ligand, UniProt P04141 18-144, looked up)
chain: APARSYYSPSTQPWEHVNAIQEARRLLNLSRDTAAEMNETVEVISEMFDLQEPTCLQTRLELYKQGLRGSLTKLKGPLTMMASHYKQHCPPTPETSCATQIITFESFKENLKDFLLVIPFDCWEPVQE
modifications: radio-iodinated where used as label
notes: position probably counts on mature GM-CSF
In the case of B1, the “IC50 (read off the curve)” value in assay [1] is around 0.03 nM.

B2: 9A2-VR24.29 Fab (Fab, V domains shown)
VH: EVQLLESGGGLVQPGGSLRLSCAASGFTFPWYRVHWVRQAPGKGLEWVSSIRSSGGFPYYNYKVKGRFTISRDNSKNTLYLQMNSLRAEDTAVYYCARFYDSFFDIWGQGTMVTVSS
VL: DIQMTQSPSSVSASVGDRVTITCRASQGISSWLAWYQQKPGKAPKLLIYAASSLQSGVPSRFSGSGSGTDFTLTISSLQPEDFATYYCQQANSFPITFGQGTRLEIKR
notes: recombinant Fab; also called recombinant Fab fragment of 9A2-VR24.29
On to B2, for which the Kd – broadly, the concentration at which binding is half-saturated – in assay [2] came out at 0.1 nM; in assay [3], 0.1 nM; in [4], 0.384 nM; in assay [5], 0.656 nM; in assay [6], 0.522 nM; in [7], 0.668 nM. This molecule also showed a Kd in assay [8] of 0.569 nM. Also, in assay [2], the off-rate (koff) (commonly a measure of how fast the partners let go of each other) stood at 0.000418 s⁻¹. Besides, the association rate constant (kon) – broadly, the rate constant with which the complex forms – in [2] is 4e+06 M⁻¹ s⁻¹.

B3: 9A2-VR24.29 (antibody, V domains shown)
VH: B2 VH
VL: B2 VL
notes: IgG4pK; also called 9A2-VR24.29 IgG
As to B3, the “IC50 IL-3, TF-1 proliferation” value in assay [9] turned out to be 0.144 nM. Besides, the “IC50 IL-5, TF-1 proliferation” value in assay [9] worked out at 4.67 nM. Also, in assay [9], the “fold improvement of IC50 GM-CSF over parental 9A2” value is 1570 fold. Moreover, the “fold improvement of IC50 IL-3 over parental 9A2” value in [9] amounted to 41 fold. In addition, the “fold improvement of IC50 IL-5 over parental 9A2” value in assay [9] came to 310 fold. Further, the “IC50 GM-CSF, TF-1 proliferation” value in [10] came out at 0.29 nM. Further, the Kd in [11] was 0.629 nM; in [12], 0.246 nM; in assay [13], 0.361 nM; in [14] it was 0.393 nM; in assay [15], 0.303 nM; in assay [16], 0.73 nM. Moreover, the values for the Kd in assay [17] and in assay [18] were 0.528 nM and 0.426 nM, respectively. The “IC50 (read off the curve)” value in [19] was around 0.007 nM; in [20], around 0.3 nM.

B4: 9A2 (antibody, IgG4, V domains shown)
VH: B2 VH with P30S, W31H, R33H, V34M, H35L, P58T, N61A, Y62D, K63S
VL: B2 VL
notes: IgG4pK (IgG4 S241P, kappa); also called parental 9A2
With B4, in assay [21], the “IC50 GM-CSF, TF-1 proliferation” value was 456 nM; the “IC50 IL-3, TF-1 proliferation” value was determined as 5.96 nM; the “IC50 IL-5, TF-1 proliferation” value was 1450 nM; the “pStat5 IC50 GM-CSF, TF-1 bla reporter” value came to 40 nM. Also, in assay [21], the “pStat5 IC50 IL-3, TF-1 bla reporter” value turned out to be 7.3 nM. The binding result in assay [22] is given as “no binding”. Further, the binding result in assay [23] is given as “no binding”. In addition, the binding result in assay [24] is “no binding”.
